In the DeepSol protein solubility set:

Experiment: soluble on expression in E. coli; label from the status in PepcDB or PDB records

Row | Sequence | soluble on expression in E. coli
1 | SNAMKQLSGLLGELRQKLCAGFPEQAGIQQLIFPAPGLVGRQLLEWLTAQTHFPQFYWRHRDNHEEAAVCGQTRSFADMKDADDFIQQNPDANGLRIWGLNAFEPVMVFGQLTDNGLVSGKNAQASFLFLPRLEILRRGKKTSLTLNLSSETSLQKDALQAITFIDQLMAARALPVLNARIQHSSHTPGYPQWRNLIQQALNDIEQQKLDKVVLARTTTLTLNKPLSCAAFMAASRQVNHRCYHFMLRFDDRQAFLGSSPERLYLRQQLHLETEALAGTVSNLDSDPQAAVLADWLMHDEKNQRENLLVVDDICQRLQGGVTAVDVMPPEIIRLRKVQHLRRRICAQLSRASDTDCLQRLQPTAAVAGLPREAARQFIAKHELFSRGWYAGSAGYLSLKRTEFSVALRSARVDGQQIHLYAGAGIVAGSDAEQEWQEIDNKSAGLQSLLEHEAQPVKA | soluble
2 | MGSDKIHHHHHHACSLQQYQTKIVANNNYGIYQSLTRKGPVRQMGVTGTFKYSHFQASSVKKIKHNTYWYVLINGHKAGWVNQSAFARNKISVAKRVSLVKNPYYDFNVKDAINYVTDSSGSVVDLDKVHVSQNTVSSAKAGIHNITYTYGKGKAHSLIRVRNDQYEGIVNANKKPQMGKSGVTWFKHFKTSGNWGKGSSYAPETKPHVLKNGNFKLKTVFYQPATLSQGDSKLGVVGPLPEGLAVSDGRMYATMYDRPTRTHAHIVSYQLNQIPNRYVMQKLPWLPWPEFARLSATIKVSPLIKLGHGQAISTSKKYIYVIANNHLLRNNPESEEIMQISKNDLQIKKIWTFKIWDQKSEYGRYVHNAVFLNDHKFIAVYHSSTMNRFEYWEVTRHGNSWYPKEIGATKGEFMRNNSPVQGIAYDKHKKQIYLAFNDYLFKLNRKGRVIENGHFNTGREFEGICVDNKTFYAELAQRPELLKQKLK | not soluble
3 | MGHHHHHHSHMQNEKETMQSLNDRLASYLDRVRSLETENRRLESKIREHLEKKGPQVRDWSHYFKIIEDLRAQIFANTVDNARIVLQIDNARLAADDFRVKYETELAMRQSVENDIHGLRKVIDDTNITRLQLETEIEALKEELLFMKKNHEEEVKGLQAQIASSGLTVEVDAPKSQDLAKIMADIRAQYDELARKNREELDKYWSQQIEESTTVVTTQSAEVGAAETTLTELRRTVQSLEIDLDSMRNLKASLENSLREVEARYALQMEQLNGILLHLESELAQTRAEGQRQAQEYEALLNIKVKLEAEIATYRRLLEDGEDFNLGDALDSSNSMQTIQKTTTRRIVDGKVVSETNDTKVLRH | soluble
4 | MRFSPIIGPSSYVSSLCHSILRGELFSTCSVGCIYCYARWYRGAHGKEKPLWESLKLIKMLGGIIREGLAITPIRVSTLSDPFQGEGKITLKFLKLALKEKVPVIINTKLIPREKHIKTIERLAEEGLVVVQVSLPTLEETKVLEPFSPSPGQRLELIERLSRAGVPTIVRVQPFVPGWIRDIHTFIEEIASAGARMIILEFLRIEKELLPLFSKLFPGEDIYKREWESYLPGTSTEEAPLLHPPLDYRLSIAREFSIKAEKEGLAFSTCKEGLFEFHTPLNVDCCGMAFFDVEYISRRPTLWDLYLEIVENGKAKGEDLWERCRREELLCRENLTPYPRWFRRGFIAHEKRLESVLRKPHIVERITPSIKYENGYFIKRKERSNSGYNSFF | not soluble
5 | QVQLQQSGAELMKPGASVKISCKATGYTFSSYWIAWVKQRPGHGLEWIGEILPGSGSTNYNEKFKGKATFTADTSSNTAYMQLSSLTSEDSAVYYCARSPYYYGNWDYWGQGTTLTVSSAKTTPPSVYPLAPGSAAQTNSMVTLGCLVKGYFPEPVTVTWNSGSLSSGVHTFPAVLQSDLYTLSSSVTVPSSTWPSETVTCNVAHPASSTKVDKKIVPRDC | soluble
6 | MTKTEKDWFQRLIKLIKSDGRTMIEISKAAGCGQNYVQQMIKGGKRPSVDKLMALLNTLGNASAIYVITGFNISDEDLKLIALISSGDKKKIEALSLLLTEKKQ | not soluble
7 | MRGYFIVLEGIDGSGKTTQAKLLAEWFEDKGYEVLLTKEPTDSELGKLIRRIILEESVIDGSKISYEAEALLFAADRAEHVKKIILPALSEGKVVICDRYFYSSLAYQWARGLDLNWLIQVNSFAPRPDLAILLDLPVKESLRRIKLRGTLTEFDKIVELQRKVRHNYLKLAEMFPEMRIVNALSSIEDIHSDIVALVKHELLGL | soluble
8 | MGHHHHHHSHMNSIVNGLYTFMSTTVVPAVTEQAANLVGGASALAEGATQALTQISQTALEWGSGSEDATASSEVFSWEQQGAAAASSDLQEDKKETTEDVHQEAIGASSPNTSIEWEVIHENPDETGPIRHNQFEMVQNNYEWMKNSK | not soluble
9 | METETDDSETSLNDSFGNKDGLELLEYERATLAKTLPASVLFVVANGLGLERLFLEHLILFSDRRLLALVLNTNEHDESYFVSKLKEHNVECDPKVINSEVSIKDRQSIYLEGGVQFCSSRVLLVDLLQNRIPTDRIAAIFVYRAHQTLNAFQDSFILRLYREKKPDGTVKAFTDFPNSLSSLGQLQRLVDRLYIRHVELMPRFSSIIESELNRYQLKTAIFSVDVPTPLRRVHRTIIEFIKVCVRDLRTCSTSGKQTDEQNEEMIHVPWAATRLEKRLHDRRGHISEKQQRLLNDVASLREILQLSENMDVATVLSRLQVLKNDRTVLEEHSGWLLSPSFNRIMEDLLTIAGVTNGKADYKKFATPAKWTVLSEILREIKMLPVEKKDRGNDSPSVLVITSSEDLSRQVTDVVRYGINKMKWMTWRQLGYKSTQEMPEDEPLWDPDTISQLMRSSVDGESKSEVIANVQKTQKTTARAAQKRRKHAEELSGFSSDHRVQTNLIQFGILQYKRRKSGNEASTSQETTEWEVKEEMEEIEEITKNIGDLEAELVVSTTRERERYTLLKLLETKKPRAIVLYTMSLQTLRQIEIYRSTNPNRSLHVYWLQYTESTEESRYLESINRETMSFELLIREQGTLLISREFNVDREDAPRLKISTRDGGGARRDGAVDPRDQMDPEEELERPKIIVDMREFNSELPTVLYTKGYNVVATTIEIGDYILSPNIAIERKALDDLTQSLQSGRVFKQIEQMLEHYDCTVLLIESNRKFETKIVNGGPFQGELSRHCREIRSIFCSLIWANPKMRCVWTISPTNSAEFFSELKLSAPEPDVDRAISLKADQVECSSQELTDSEASTSTKAKKGKKWKPNPTVIRTLTQIFGIKASEAHNLLANSSIKTLADLFSLNITASHLSDFIPSTSADFIKDLSTFNFGRK | not soluble
10 | MDMTDQAFFKYVRNFNEYQKRSMFGGIGLFSDDAMFALVSNDCCYLRGGNGLDEEFTLLNCEKYKHVKKQTTATVNYYDVTDLFESGFTGLDDLLRKSIDCSIKERKYQKSSASKRLRDLPNMQLTLERMVKKAGIDDVETFLELGPVEVFNKVRVAYGNDVDVKLLWKFAGAIDGVHWKLIQEPRKKQLLALCE | not soluble
11 | MASLNCHDKCSTTTQSDINLKDELLSSTSIECRPGNDLLESLHKEQNRWYSETKTFSDSSQHTGRGFEKYWFCYGIKCYYFVMDRKTWSGCKQTCQISSLSLLKIDNEDELKFLKLLVPSDSYWIGLSYDNKKKDWAWINNGPSKLALNTMKYNIRDGGCMLLSKTRLDNDNCDKSFICICGKRLDKFPH | soluble
12 | MSLIKLFLLKLYWAHFSTKQIHQFLMAYPNVIKEEGRKKDSYLCEWVNREENVHLLRKYYAFIKLDHNDIIKELQKLKVSYITYMDSEYPVLLKEIYQFPLLLFYKGNIKLINNMHHLAVVGARDSTSYTQQSLEFLLSNDKSKYLTIVSGLAQGADAMAHQIALKYNLPTIAVLAFGHQTHYPKSTLALRNKIEEKGLVISEYPPHTPIAKYRFPERNRIISGLSKGVLITEAKEQSGSHITIDFALEQNRNVYVLPGSMFNPMTKGNLLRIQEGAKVVLNANDIFEDYYIEGHHHHHH | soluble
13 | MGSDKIHHHHHHMLNKLCMYLERPELYKQSEINFWDDEYISKQLLKAHLDTNFEGASRNFNFIEDSVNWIVTVANPANYPKLLDLGCGPGLYAEKFAQKGYKVTGIDFSKRSINYAQNRNKETNLNINYLFQSYLNMNYNEEFDLATLIYCDYGALSTENRRLLMEKIYDSLKPGGKLILDVFTINKYNNFEEIKYWEINEDGGFWSNEKYMCLQDNCKYNDYNTLEQTLVITEKDENVFYVWNHYFSKESFLLEVENIGFKSVEFFSNVKGEAYSDDSMTMGLVLQK | not soluble
14 | MGSDKIHHHHHHMATENPPIYMVGGSKGGVGKSFVTLALVDYLRRMEVNVVLVETDTSNPDVMKAVHDEIECGSCDLDDVSGWIDFVNFCDLHPDATVVVNTAARSQAGVAQYGGTLASTLDELARRLVVLWVINRQRDSLELLLRFGATFPNAITHVVRNGYFGSPDKFTLYRDSQLRNAVEAQGQSLDFPDLADRVADELRSQRLSVSKAAEMMHMGERAELLRWRAVCGTMFARVTPHA | not soluble
15 | MTQLCSDVRVSPLPGTAKVGDTYILFEHHGPWSHDILDGGTFDKETSAALKAMGCGFYLIRRHGREGRIERPKKTAYLVFGSAGIAEKLMVDDVTDLLKLDVSGPGKNRQFGAEQEAQPIILVCTHAKRDACCAIKGRPMAQALTEEFPDSPVWECSHTKGHRFAPSMVLMPWGYTWGQLNKPAAFDMYRYAQRGQLFLPGNRGRGIWPMKGQIAEVAVAQQLAQEGETVTLGQLRVESIEEAQAHVADSHTARTWTVFLREEVVAGIVDSCHKPPKTGTAWVADRVKENGA | not soluble
16 | MGSDKIHHHHHHMSDVKGKNMTKKKPVLKRFNYRLNKLHVKNLKGIKDFTLNFEKDKLVTGIVGINGSGKSTLIHALACAFKPIGKATSKDFNRLSHFFTPNKDASWEGSEFEIEFEFDELTIKPNSEPTKKLINHTEVYSKKQGKKVSRWLPIYGRRHERESAYIGLHDLATLSEDKNAGRYKEYETEDLAHEASDKIKEDLVYILGRNYNRLTTCLVKQKDKVHTLFGLVFNGVEYSEHSMGAGEKRLLTILSALHNPKLAKGGLLLIDEIDVLLHGMAFKRLIERIIKRANENKIEVIFSTHRETIIDFKNDLLIYGVLNTGKGVIPMPHTHPQVMQQLTGVRTVPIEIYVEDDLATSVIETLLYQKHATHYVNITKFGTWSNAFAILAGKILMDSDISETLCVLDGDVCNTIEERTSECQRHLNGDDKNEHRQSMLNHIVEFKLANIAPQGSGGSPEYNIKIMFESIESDDPRVVELQRYSREMQGLEDWHVYFDILAETSGIRTARDKVLEAISETGQWNDYIVEISNWLDEKLKIYLPVRVQEEENLVTV | not soluble
17 | MAHHHHHHMRFVFRRLLPASTAAVAAPPSLLSMRGAPSFVHPPAEEAIGKDVRATPANWVTAYVLPEVITEQEEKTLLDFSEPWFERLSYNDGHMDGLIHHYKEFYRSYAAITQAAETGSDAGLNMPHANLEVDLPLVSEALARAHDLAQTYLPCIPIDDRVHFLRLAGSGFIRAHVDESRNSTGIVAGLCLNAGRVMTLTHPAYPGERVELMLAPRCLYILIGRARYDWAHSVDWVGDDDEHIRRIQKSLAVEGTPIRFDGAETPYRRSDRTAIIFRGVSPMTLLVRRMRQRG | not soluble
18 | MGSDKIHHHHHHMAQRSILVGQIWHEGHSFNPILTREKDFLFLRGEAVLEEARASSTALSGIVKTAEALGYRCVPSISARARPGGAIEQKVFDNIVDEFVQAARMQDFDAICLDLHGATLAEHTLDTEGYLLSRLREVVGNDIMISLALDLHAYLTPQMVEQATIITSFRTTPHADIEETGVRAMTLLDSLSNETRPPRAIYSLIPFLTRGNDETWSGPLAEIGAAADRWRARSDVVDLSIFNVHPFLDVPGYGQVVLAYDNGSGAAIDACRDLSDMLWKARDEFQEQLMSVDKALEIARTSRQLLALGDQGDRVMGAGPGDSPEIARVALEHFPGLKVAVPVYDPQAVRTAREAGENATVRMAVGGAFTHSVAPLERDWTVRKLCRARFTNIGPYMAGTEADFGDAAVLTCDAVTVIVTTMAPNVHDPAFYEAVGVPLASQQAVVARAANHYKLSFADIARTITVDTPGLTAFKPHQFPFTQARPFYPLDIVQWSFAPLECNKVG | not soluble
